Experiment [1] has as its target Lys63-linked Ub chains (on proteins in cells and in U2OS lysate). Briefly: cell-based or functional assay.
For experiment [2] the target is unchanged. In words: cell-based or functional assay. This is another data set of the same source.

Like-named read-outs stand apart in the source and are kept apart here. Starred links: 1 amine or outer side, 2 acyl side, 3 side chain; linkers in the order of their positions; H or OH if unused. Positions of bridges follow the written chain, without caps; N, C: chain ends. No end group written: not given here. *: point of attachment. mClBz = N-terminal group cyclised as a benzyl thioether to a Cys, O=C(c1cccc(C[*:3])c1)[*:2]; C6F5 = pentafluorophenyl group on the Cys sulfur, Fc1c(F)c(F)c(*)c(F)c1F

In experiment [1], mClBz-CLIWIGSSKNPYILCG (bridge N-15; not fully specified (C-terminus, bridges)) [cyclic peptide 2 (CP1-L1C)] had an increase in the population of HeLa cells at G2/M phase, flow cytometry, 72 h of 5.2%; an increase in the population of HeLa cells at G2/M phase, flow cytometry, 96 h of 13%; an increase of overall Annexin V positive HeLa cells, 96 h of 14.5%; a relative tail moment, comet assay, U2OS cells of 8 fold. In experiment [1], this molecule yielded a γ-H2AX level, western blot, HeLa cells of 3.5 fold and a γ-H2AX level, western blot, U2OS cells of 3 fold.

In experiment [2], mClBz-C(C6F5)LIWIGSSKNPYILCG (thioether N-15) [cyclic peptide 20, CP1-L1C-C6F5] had a γ-H2AX level, western blot, HeLa cells of 2.4 fold and a γ-H2AX level, western blot, U2OS cells of 1.8 fold.

These data come from US20250099534A1, “UBIQUITIN HIGH AFFINITY CYCLIC PEPTIDES AND METHODS OF USE THEREOF” (TECHNION RESEARCH & DEVELOPMENT FOUNDATION LIMITED, priority 2022, published 2025).
